Laboratory results taken from publication PMC5882242, “Functional roles of Mg^2+ binding sites in ion-dependent gating of a Mg^2+ channel, MgtE, revealed by solution NMR” (eLife, 2018).

Target: the molecule itself
Assay: SEC; Superdex 200 GL 10/300; 20 mM HEPES-NaOH (pH 6.1), 100 mM NaCl, 1 mM DDM; BSA monomer, dimer and tetramer as standards; MgtE in DDM micelles

B1: full-length MgtE from Thermus thermophilus (natural protein, UniProt Q5SMG8 1-450, looked up)
chain: MEEKLAVSLQEALQEGDTRALREVLEEIHPQDLLALWDELKGEHRYVVLTLLPKAKAAEVLSHLSPEEQAEYLKTLPPWRLREILEELSLDDLADALQAVRKEDPAYFQRLKDLLDPRTRAEVEALARYEEDEAGGLMTPEYVAVREGMTVEEVLRFLRRAAPDAETIYYIYVVDEKGRLKGVLSLRDLIVADPRTRVAEIMNPKVVYVRTDTDQEEVARLMADYDFTVLPVVDEEGRLVGIVTVDDVLDVLEAEATEDIHKLGAVDVPDLVYSEAGPVALWLARVRWLVILILTGMVTSSILQGFESVLEAVTALAFYVPVLLGTGGNTGNQSATLIIRALATRDLDLRDWRRVFLKEMGVGLLLGLTLSFLLVGKVYWDGHPLLLPVVGVSLVLIVFFANLVGAMLPFLLRRLGVDPALVSNPLVATLSDVTGLLIYLSVARLLLEAV
notes: MgtE, Mg2+ channel of Thermus thermophilus, full length (residues 1-450: cytoplasmic region 1-263, transmembrane region 264-450); plasmid with N-terminal His x 6 tag and HRV-3C protease recognition site; Dimer in DDM micelles by SEC; theoretical M.W. 50 kDa a subunit; The construct is described in Hattori et al., 2007a; also called wild-type MgtE; WT; source: E. coli C41 (DE3), solubilized in …
- stoichiometry N: 2
